This data set relates to Escherichia coli TOP10. Kind of data set: shrunken log2 fold change of peptide-encoding DNA abundance (4.5 h post-induction vs induction); higher = less antimicrobial activity (less host growth inhibition). The following applies: time post-induction: 4.5 h; library: site-saturation at positions 5, 18, 19, 20.
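Further: peptides expressed intracellularly from a pBAD plasmid library in pooled LB shake-flask culture, induced with 0.3% L-arabinose, DNA abundance read by NGS, three biological replicates, DESeq2 with apeglm shrinkage.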

Take RRIRTRPPRLPRPRPRPKCEPRP: the “shrunken log2 fold change” value was 0.118. For RRIRHRPPRLPRPRPRPSPTPRP, the “shrunken log2 fold change” value amounted to 0.0862. As for RRIRERPPRLPRPRPRPCPLPRP, the figure is -0.265; as for RRIRGRPPRLPRPRPRPIMQPRP, 0.105; as for RRIRVRPPRLPRPRPRPFLPPRP, -0.198. As for RRIRSRPPRLPRPRPRPQADPRP, the figure is -0.0788. On to RRIRRRPPRLPRPRPRPKGMPRP, for which the “shrunken log2 fold change” value was 0.218. On to RRIRFRPPRLPRPRPRPCISPRP, for which the “shrunken log2 fold change” value is -0.068. RRIRARPPRLPRPRPRPVYEPRP: the “shrunken log2 fold change” value was -0.426.

On to RRIRLRPPRLPRPRPRPSTQPRP, for which the “shrunken log2 fold change” value was -0.337. As for RRIRTRPPRLPRPRPRPVLHPRP, the “shrunken log2 fold change” value is -0.139. For the sequence RRIRMRPPRLPRPRPRPIINPRP, the “shrunken log2 fold change” value was -0.0492. The value for RRIRTRPPRLPRPRPRPSVGPRP was -0.055. The value for RRIRERPPRLPRPRPRPERTPRP was 0.0163. The value for RRIRNRPPRLPRPRPRPIRLPRP was -0.0969.

In the case of RRIRTRPPRLPRPRPRPFSIPRP, the “shrunken log2 fold change” value was -0.284.

For the sequence RRIRNRPPRLPRPRPRPSNPPRP, the “shrunken log2 fold change” value turned out to be 0.0568. As for RRIRMRPPRLPRPRPRPMFRPRP, the figure is -0.0348; as for RRIRQRPPRLPRPRPRPKLKPRP, -0.0236. The value for RRIRDRPPRLPRPRPRPFMYPRP was -0.212; that for RRIRHRPPRLPRPRPRPDKFPRP was -0.16; that for RRIRKRPPRLPRPRPRPREWPRP was 1.77. As for RRIRARPPRLPRPRPRPREVPRP, the figure is 0.738; as for RRIRYRPPRLPRPRPRPCCRPRP, -0.732.

Regarding RRIRSRPPRLPRPRPRPGYNPRP, the “shrunken log2 fold change” value was -0.846. As for RRIRYRPPRLPRPRPRPPMLPRP, the figure is -0.492; as for RRIRKRPPRLPRPRPRPYKPPRP, -0.0134; as for RRIRHRPPRLPRPRPRPSNLPRP, -0.289.

As to RRIRMRPPRLPRPRPRPTQEPRP, the “shrunken log2 fold change” value was determined as 0.433.

In the case of RRIRGRPPRLPRPRPRPLDIPRP, the “shrunken log2 fold change” value was -0.0476.

For the sequence RRIRYRPPRLPRPRPRPSRVPRP, the “shrunken log2 fold change” value was -0.115.

As for RRIRQRPPRLPRPRPRPYAMPRP, the “shrunken log2 fold change” value was -0.341. The value for RRIRWRPPRLPRPRPRPLCWPRP was 0.513; that for RRIRCRPPRLPRPRPRPGTSPRP was 0.0279; that for RRIRYRPPRLPRPRPRPWVEPRP was 0.0344. Consider RRIRRRPPRLPRPRPRPYDHPRP, for which the “shrunken log2 fold change” value is -0.149.

As to RRIRLRPPRLPRPRPRPWIYPRP, the “shrunken log2 fold change” value is -0.385. As for RRIRNRPPRLPRPRPRPTIHPRP, the figure is -0.46. As for RRIRYRPPRLPRPRPRPTRQPRP, the figure is -0.00287.

With RRIRSRPPRLPRPRPRPEEDPRP, the “shrunken log2 fold change” value is -0.00277. As for RRIRMRPPRLPRPRPRPIIYPRP, the figure is -0.732; as for RRIRARPPRLPRPRPRPWMSPRP, 0.0814; as for RRIRFRPPRLPRPRPRPNFSPRP, -0.283. Consider RRIRMRPPRLPRPRPRPMYGPRP, for which the “shrunken log2 fold change” value came to 0.0383. In the case of RRIRIRPPRLPRPRPRPWNWPRP, the “shrunken log2 fold change” value turned out to be 0.0631.

Regarding RRIRGRPPRLPRPRPRPVAVPRP, the “shrunken log2 fold change” value was 0.912. As for RRIRKRPPRLPRPRPRPGNYPRP, the figure is -0.113; as for RRIRVRPPRLPRPRPRPSGGPRP, 0.104; as for RRIRLRPPRLPRPRPRPMGMPRP, 0.0771. The value for RRIRIRPPRLPRPRPRPAETPRP was -0.0338; that for RRIRARPPRLPRPRPRPSIFPRP was -0.101; that for RRIRNRPPRLPRPRPRPHNPPRP was -0.143. As for RRIRKRPPRLPRPRPRPKQQPRP, the figure is 0.0737; as for RRIRARPPRLPRPRPRPTNQPRP, 0.153; as for RRIRKRPPRLPRPRPRPRKQPRP, 0.224. In the case of RRIRNRPPRLPRPRPRPGATPRP, the “shrunken log2 fold change” value is 0.124. RRIRSRPPRLPRPRPRPDNGPRP: the “shrunken log2 fold change” value is -0.232.

Turning to RRIRFRPPRLPRPRPRPFSMPRP, the “shrunken log2 fold change” value is -0.232.

Turning to RRIRDRPPRLPRPRPRPAHLPRP, the “shrunken log2 fold change” value was 0.0723. The value for RRIRARPPRLPRPRPRPWRLPRP was 0.466; that for RRIRRRPPRLPRPRPRPVKAPRP was 0.148; that for RRIRSRPPRLPRPRPRPSQPPRP was -0.14. For the sequence RRIRRRPPRLPRPRPRPYRFPRP, the “shrunken log2 fold change” value was -0.15. The value for RRIRYRPPRLPRPRPRPNGMPRP was -0.0465.

For RRIRVRPPRLPRPRPRPSHHPRP, the “shrunken log2 fold change” value is -0.448. As for RRIRWRPPRLPRPRPRPMYTPRP, the figure is 0.0906. With RRIRFRPPRLPRPRPRPLDKPRP, the “shrunken log2 fold change” value is -0.103. As for RRIRWRPPRLPRPRPRPFAGPRP, the figure is 0.0847. The value for RRIRHRPPRLPRPRPRPMRSPRP was -0.00134; that for RRIRGRPPRLPRPRPRPLDDPRP was 1.09; that for RRIRIRPPRLPRPRPRPYMHPRP was -1.32. For the sequence RRIRFRPPRLPRPRPRPWVQPRP, the “shrunken log2 fold change” value is -0.116. As for RRIRKRPPRLPRPRPRPQFEPRP, the figure is 0.177; as for RRIRWRPPRLPRPRPRPYLVPRP, -0.195; as for RRIRMRPPRLPRPRPRPTIVPRP, -0.0671. As for RRIRGRPPRLPRPRPRPTVIPRP, the figure is 0.107; as for RRIRDRPPRLPRPRPRPWLNPRP, -0.277. The value for RRIRQRPPRLPRPRPRPYHKPRP was 0.0375. As for RRIRCRPPRLPRPRPRPMYYPRP, the “shrunken log2 fold change” value was -0.472. As for RRIRMRPPRLPRPRPRPMYLPRP, the figure is -0.0638. As for RRIRPRPPRLPRPRPRPADSPRP, the figure is -0.0563; as for RRIRKRPPRLPRPRPRPDKGPRP, -0.022. RRIRIRPPRLPRPRPRPADYPRP: the “shrunken log2 fold change” value is -0.635. Consider RRIRFRPPRLPRPRPRPVDLPRP, for which the “shrunken log2 fold change” value is -0.102. Consider RRIRERPPRLPRPRPRPCDVPRP, for which the “shrunken log2 fold change” value is -0.017. On to RRIRSRPPRLPRPRPRPSRFPRP, for which the “shrunken log2 fold change” value is -0.0392. For RRIRYRPPRLPRPRPRPAHNPRP, the “shrunken log2 fold change” value was -0.409.

In the case of RRIRPRPPRLPRPRPRPTDKPRP, the “shrunken log2 fold change” value came to 0.0429. The value for RRIRLRPPRLPRPRPRPTIPPRP was 0.0895; that for RRIRFRPPRLPRPRPRPEGWPRP was 0.807. The value for RRIRGRPPRLPRPRPRPIMEPRP was 0.229.

As for RRIRCRPPRLPRPRPRPESTPRP, the “shrunken log2 fold change” value was 0.0373. The value for RRIRRRPPRLPRPRPRPIQVPRP was -0.0268.

RRIRQRPPRLPRPRPRPIFDPRP: the “shrunken log2 fold change” value is -0.0877. As for RRIRGRPPRLPRPRPRPVQRPRP, the figure is 0.739.

RRIRVRPPRLPRPRPRPHNSPRP: the “shrunken log2 fold change” value was -0.23.

Take RRIRTRPPRLPRPRPRPPFYPRP: the “shrunken log2 fold change” value is -0.0308. The value for RRIRPRPPRLPRPRPRPCTGPRP was -0.00227; that for RRIRKRPPRLPRPRPRPHFEPRP was 0.101. Consider RRIRTRPPRLPRPRPRPQNCPRP, for which the “shrunken log2 fold change” value was -0.373.

Consider RRIRHRPPRLPRPRPRPATPPRP, for which the “shrunken log2 fold change” value was 0.299. As for RRIRGRPPRLPRPRPRPQYFPRP, the “shrunken log2 fold change” value was -0.141. As for RRIRIRPPRLPRPRPRPWEQPRP, the figure is 0.107; as for RRIRPRPPRLPRPRPRPSTLPRP, -0.139; as for RRIRWRPPRLPRPRPRPSPTPRP, 0.0554. As for RRIRCRPPRLPRPRPRPGIPPRP, the figure is -0.126; as for RRIRCRPPRLPRPRPRPQYFPRP, -0.252. The value for RRIRIRPPRLPRPRPRPDARPRP was 0.262; that for RRIRPRPPRLPRPRPRPTSRPRP was -0.0592. Regarding RRIRTRPPRLPRPRPRPVRIPRP, the “shrunken log2 fold change” value is -0.0431. As for RRIRQRPPRLPRPRPRPQFKPRP, the figure is -0.0321.

Regarding RRIRRRPPRLPRPRPRPQMDPRP, the “shrunken log2 fold change” value is -0.0632. The value for RRIRQRPPRLPRPRPRPWTTPRP was -0.0827; that for RRIRSRPPRLPRPRPRPLRWPRP was 0.776; that for RRIRKRPPRLPRPRPRPYARPRP was -0.0148. The value for RRIRQRPPRLPRPRPRPKQKPRP was -0.0585; that for RRIRKRPPRLPRPRPRPNPQPRP was 0.463; that for RRIRIRPPRLPRPRPRPDHAPRP was -0.0379. As for RRIRMRPPRLPRPRPRPQFTPRP, the figure is 0.095; as for RRIRGRPPRLPRPRPRPIGSPRP, 0.45; as for RRIRRRPPRLPRPRPRPGKMPRP, 0.0473. Take RRIRHRPPRLPRPRPRPINHPRP: the “shrunken log2 fold change” value was -0.97. The value for RRIRWRPPRLPRPRPRPENGPRP was -0.109; that for RRIRVRPPRLPRPRPRPGGFPRP was 0.211. As for RRIRTRPPRLPRPRPRPHPDPRP, the figure is -0.00834.
